Columns and labels:
MBP-ApFoxO DBD [1] = target: T1, MBP-ApFoxO DBD (Acyrthosiphon pisum, UniProt A0A8R1VZ87 89-178); test: EMSA; 0.5 and 5 ug protein; concentration-dependent shift; EMSA: room temperature, 30 min; 6% native PAGE in 0.5x TBE, 60 V, 4 C; binding buffer, salt and pH not stated; details: protein: recombinant; tags: N-terminal MBP (pMAL-c2x); label: 5' biotin
MBP-ApFoxO DBD [2] = target: T1, MBP-ApFoxO DBD; test: competition; 5x and 25x unlabeled probe vs labeled FRE2; shift greatly reduced; EMSA: room temperature, 30 min; 6% native PAGE in 0.5x TBE, 60 V, 4 C; binding buffer, salt and pH not stated; details: protein: recombinant; tags: N-terminal MBP (pMAL-c2x)
MBP-ApFoxO DBD [3] = target: T1, MBP-ApFoxO DBD; test: EMSA; 0.5 and 5 ug protein; EMSA: room temperature, 30 min; 6% native PAGE in 0.5x TBE, 60 V, 4 C; binding buffer, salt and pH not stated; details: protein: recombinant; tags: N-terminal MBP (pMAL-c2x); label: 5' biotin
MBP-ApFoxO DBD [4] = target: T1, MBP-ApFoxO DBD; test: EMSA; 0.5 ug protein, 5x labeled mutant probe; EMSA: room temperature, 30 min; 6% native PAGE in 0.5x TBE, 60 V, 4 C; binding buffer, salt and pH not stated; details: protein: recombinant; tags: N-terminal MBP (pMAL-c2x); label: 5' biotin

T1 sequence (A0A8R1VZ87 entry or part of it): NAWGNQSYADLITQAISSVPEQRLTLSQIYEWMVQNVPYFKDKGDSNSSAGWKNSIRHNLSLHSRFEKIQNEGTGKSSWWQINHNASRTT

B1: ApHh promoter FRE2 probe (dsDNA)
DNA 1: GATATAGTTTACATGTTTACATGACGGCAGAGA
DNA 2: TCTCTGCCGTCATGTAAACATGTAAACTATATC
binding result (MBP-ApFoxO DBD [1]): binds

B2: FRE2 unlabeled competitor (dsDNA)
DNA 1: GATATAGTTTACATGTTTACATGACGGCAGAGA
DNA 2: TCTCTGCCGTCATGTAAACATGTAAACTATATC
binding result (MBP-ApFoxO DBD [2]): binds

B3: ApHh promoter FRE1 probe (dsDNA)
DNA 1: TTGACTGTAGTATGTAAACATTTCTGAACTCCA
DNA 2: TGGAGTTCAGAAATGTTTACATACTACAGTCAA
binding result (MBP-ApFoxO DBD [3]): no binding

B4: FRE2 mutant (FRE_m) (dsDNA)
DNA 1: GATATAGTTTACACACCCGTATGACGGCAGAGA
DNA 2: TCTCTGCCGTCATACGGGTGTGTAAACTATATC
binding result (MBP-ApFoxO DBD [4]): no binding
